Data on 94 variants can be found in the supplement of paper PMC10567573.

The labels stand for the following.
B1: ATE1 (parent)
chain: YGSFHQQYWLDGKIIAVGVIDILP
B2: KCNA1 (parent)
chain: LKASMRELGLLIFFLFIGVILFSS
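Note: lentivirally expressed fusions sorted by FACS into six bins by GFP to DsRed ratio, PSI derived from sequencing read proportions per bin multiplied by bin number.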

The variants in the first data set derive from B1. As to the kind of experiment: protein stability index of a GFP-peptide fusion (GPS, HEK-293T) (PSI 1-6); higher = more stable. Conditions: c terminus: a fixed tail appended.
With YGSFHQQYWLDGKIIAVGVIDIQP [L23Q], the protein stability index was determined as 3.64.

In the case of YGSFHQQYWLDGKIIAVGVIDISP [L23S], the protein stability index is 2.66.

As for YGSFHQQYWLDGKIIAVGVIDITP [L23T], the protein stability index is 2.53.

On to YGSFHQQYWLDGKIIAVGVIDIPP [L23P], for which the protein stability index worked out at 2.72.

In the case of YGSFHQQYWLDGKIIAVGVIDILG [P24G], the protein stability index is 3.18.

In the case of YGSFHQQYWLDGKIIAVGVIDILS [P24S], the protein stability index is 1.79.

On to YGSFHQQYWLDGKIIAVGVIDILW [P24W], for which the protein stability index worked out at 3.2.

Regarding YGSFHQQYWLDGKIIAVGVIDILA [P24A], the protein stability index was 2.06.

Turning to YGSFHQQYWLDGKIIAVGVIDILV [P24V], the protein stability index was found to be 3.01.

In the case of YGSFHQQYWLDGKIIAVGVIDILK [P24K], the protein stability index came out at 1.04.

For the variant YGSFHQQYWLDGKIIAVGVIDILQ [P24Q], the protein stability index was found to be 2.51.

YGSFHQQYWLDGKIIAVGVIDILL [P24L]: the protein stability index is 4.25.

Turning to YGSFHQQYWLDGKIIAVGVIDILM [P24M], the protein stability index was 2.18.

With YGSFHQQYWLDGKIIAVGVIDILI [P24I], the protein stability index amounted to 2.73.

Take YGSFHQQYWLDGKIIAVGVIDILF [P24F]: the protein stability index was found to be 1.69.

The variants in another data set derive from B2. Described as above. The note with it: c terminus: a fixed tail appended.
Turning to LKASMVELGLLIFFLFIGVILFSS [R6V], the protein stability index turned out to be 2.45.

LKASMGELGLLIFFLFIGVILFSS [R6G]: the protein stability index was 2.63.

Turning to LKASMDELGLLIFFLFIGVILFSS [R6D], the protein stability index turned out to be 3.02.

Turning to LKASMIELGLLIFFLFIGVILFSS [R6I], the protein stability index turned out to be 3.16.

In the case of LKASMCELGLLIFFLFIGVILFSS [R6C], the protein stability index turned out to be 3.31.

Regarding LKASMQELGLLIFFLFIGVILFSS [R6Q], the protein stability index is 2.28.

For the variant LKASMSELGLLIFFLFIGVILFSS [R6S], the protein stability index stood at 2.88.

For the variant LKASMYELGLLIFFLFIGVILFSS [R6Y], the protein stability index was determined as 3.07.

For the variant LKASMKELGLLIFFLFIGVILFSS [R6K], the protein stability index stood at 1.61.

For LKASMLELGLLIFFLFIGVILFSS [R6L], the protein stability index was found to be 3.12.

Regarding LKASMPELGLLIFFLFIGVILFSS [R6P], the protein stability index was found to be 2.36.

As to LKASMAELGLLIFFLFIGVILFSS [R6A], the protein stability index was 3.59.

Consider LKASMWELGLLIFFLFIGVILFSS [R6W], for which the protein stability index came out at 2.35.

Turning to LKASMMELGLLIFFLFIGVILFSS [R6M], the protein stability index was 3.15.

Consider LKASMTELGLLIFFLFIGVILFSS [R6T], for which the protein stability index was found to be 3.38.

Take LKASMNELGLLIFFLFIGVILFSS [R6N]: the protein stability index amounted to 2.85.

Consider LKASMHELGLLIFFLFIGVILFSS [R6H], for which the protein stability index worked out at 3.36.

As to LKASMRELELLIFFLFIGVILFSS [G9E], the protein stability index worked out at 4.03.

Regarding LKASMRELHLLIFFLFIGVILFSS [G9H], the protein stability index amounted to 1.8.

LKASMRELCLLIFFLFIGVILFSS [G9C]: the protein stability index worked out at 1.29.

In the case of LKASMRELSLLIFFLFIGVILFSS [G9S], the protein stability index was determined as 1.98.

For the variant LKASMRELWLLIFFLFIGVILFSS [G9W], the protein stability index was 1.54.

Consider LKASMRELTLLIFFLFIGVILFSS [G9T], for which the protein stability index was 1.72.

In the case of LKASMRELKLLIFFLFIGVILFSS [G9K], the protein stability index was 3.

As to LKASMRELILLIFFLFIGVILFSS [G9I], the protein stability index amounted to 2.18.

On to LKASMRELLLLIFFLFIGVILFSS [G9L], for which the protein stability index is 1.83.

Regarding LKASMRELDLLIFFLFIGVILFSS [G9D], the protein stability index came out at 3.82.

As to LKASMRELYLLIFFLFIGVILFSS [G9Y], the protein stability index was determined as 2.34.

Take LKASMRELQLLIFFLFIGVILFSS [G9Q]: the protein stability index is 4.69.

As to LKASMRELFLLIFFLFIGVILFSS [G9F], the protein stability index came out at 2.07.

For the variant LKASMRELMLLIFFLFIGVILFSS [G9M], the protein stability index came to 2.37.

Take LKASMRELALLIFFLFIGVILFSS [G9A]: the protein stability index worked out at 1.75.

LKASMRELPLLIFFLFIGVILFSS [G9P]: the protein stability index turned out to be 3.05.

Turning to LKASMRELRLLIFFLFIGVILFSS [G9R], the protein stability index turned out to be 2.48.

As to LKASMRELVLLIFFLFIGVILFSS [G9V], the protein stability index turned out to be 1.71.

Regarding LKALMRELGLLIFFLFIGVILFSS [S4L], the protein stability index was found to be 4.39.

Take LKAQMRELGLLIFFLFIGVILFSS [S4Q]: the protein stability index is 2.55.

Turning to LKAKMRELGLLIFFLFIGVILFSS [S4K], the protein stability index was 1.62.

Turning to LKARMRELGLLIFFLFIGVILFSS [S4R], the protein stability index came out at 2.09.

For LKANMRELGLLIFFLFIGVILFSS [S4N], the protein stability index was 2.31.

Take LKATMRELGLLIFFLFIGVILFSS [S4T]: the protein stability index was 2.46.

Turning to LKADMRELGLLIFFLFIGVILFSS [S4D], the protein stability index stood at 3.58.

LKAYMRELGLLIFFLFIGVILFSS [S4Y]: the protein stability index worked out at 2.17.

Consider LKAIMRELGLLIFFLFIGVILFSS [S4I], for which the protein stability index worked out at 1.69.

Take LKAPMRELGLLIFFLFIGVILFSS [S4P]: the protein stability index came out at 3.03.

Regarding LKACMRELGLLIFFLFIGVILFSS [S4C], the protein stability index is 2.87.

For the variant LKAAMRELGLLIFFLFIGVILFSS [S4A], the protein stability index came to 3.21.

For the variant LKAWMRELGLLIFFLFIGVILFSS [S4W], the protein stability index is 1.55.

As to LKAFMRELGLLIFFLFIGVILFSS [S4F], the protein stability index stood at 2.15.

Turning to LKAHMRELGLLIFFLFIGVILFSS [S4H], the protein stability index turned out to be 2.07.

In the case of LKAEMRELGLLIFFLFIGVILFSS [S4E], the protein stability index was 3.02.

As to LKAGMRELGLLIFFLFIGVILFSS [S4G], the protein stability index came out at 1.91.

For LKAVMRELGLLIFFLFIGVILFSS [S4V], the protein stability index was determined as 2.65.

With LKAMMRELGLLIFFLFIGVILFSS [S4M], the protein stability index is 1.97.

On to LGASMRELGLLIFFLFIGVILFSS [K2G], for which the protein stability index was 2.49.

As to LYASMRELGLLIFFLFIGVILFSS [K2Y], the protein stability index was found to be 2.35.

On to LCASMRELGLLIFFLFIGVILFSS [K2C], for which the protein stability index was 1.28.

With LVASMRELGLLIFFLFIGVILFSS [K2V], the protein stability index came to 3.35.

Consider LFASMRELGLLIFFLFIGVILFSS [K2F], for which the protein stability index amounted to 2.

For LSASMRELGLLIFFLFIGVILFSS [K2S], the protein stability index amounted to 2.19.

Turning to LMASMRELGLLIFFLFIGVILFSS [K2M], the protein stability index was found to be 2.15.

As for LIASMRELGLLIFFLFIGVILFSS [K2I], the protein stability index is 2.79.

For the variant LRASMRELGLLIFFLFIGVILFSS [K2R], the protein stability index amounted to 2.32.

Regarding LQASMRELGLLIFFLFIGVILFSS [K2Q], the protein stability index stood at 3.04.

As to LNASMRELGLLIFFLFIGVILFSS [K2N], the protein stability index came out at 2.18.

In the case of LWASMRELGLLIFFLFIGVILFSS [K2W], the protein stability index is 2.4.

Take LAASMRELGLLIFFLFIGVILFSS [K2A]: the protein stability index was found to be 3.41.

LDASMRELGLLIFFLFIGVILFSS [K2D]: the protein stability index stood at 2.89.

Take LTASMRELGLLIFFLFIGVILFSS [K2T]: the protein stability index was determined as 2.01.

For LHASMRELGLLIFFLFIGVILFSS [K2H], the protein stability index is 2.54.

Turning to LPASMRELGLLIFFLFIGVILFSS [K2P], the protein stability index is 2.02.

LLASMRELGLLIFFLFIGVILFSS [K2L]: the protein stability index was found to be 1.81.

For the variant LEASMRELGLLIFFLFIGVILFSS [K2E], the protein stability index came to 3.11.

For the variant LKTSMRELGLLIFFLFIGVILFSS [A3T], the protein stability index worked out at 2.12.

Consider LKKSMRELGLLIFFLFIGVILFSS [A3K], for which the protein stability index is 2.16.

With LKCSMRELGLLIFFLFIGVILFSS [A3C], the protein stability index worked out at 1.92.

For the variant LKHSMRELGLLIFFLFIGVILFSS [A3H], the protein stability index stood at 2.89.

In the case of LKMSMRELGLLIFFLFIGVILFSS [A3M], the protein stability index is 1.58.

With LKQSMRELGLLIFFLFIGVILFSS [A3Q], the protein stability index was 2.12.
